We go through three molecules from patent EP3205670.

Assay [1] has as its target T1, hRSV F protein (FTM-NN) (hRSV, UniProt P03420). Briefly: competition, AlphaScreen.
Assay [2] has as its target T1, hRSV F protein (FTM-NN). Briefly: SPR.

Positions count from the first letter of the chain named.

T1 sequence (P03420 26-524): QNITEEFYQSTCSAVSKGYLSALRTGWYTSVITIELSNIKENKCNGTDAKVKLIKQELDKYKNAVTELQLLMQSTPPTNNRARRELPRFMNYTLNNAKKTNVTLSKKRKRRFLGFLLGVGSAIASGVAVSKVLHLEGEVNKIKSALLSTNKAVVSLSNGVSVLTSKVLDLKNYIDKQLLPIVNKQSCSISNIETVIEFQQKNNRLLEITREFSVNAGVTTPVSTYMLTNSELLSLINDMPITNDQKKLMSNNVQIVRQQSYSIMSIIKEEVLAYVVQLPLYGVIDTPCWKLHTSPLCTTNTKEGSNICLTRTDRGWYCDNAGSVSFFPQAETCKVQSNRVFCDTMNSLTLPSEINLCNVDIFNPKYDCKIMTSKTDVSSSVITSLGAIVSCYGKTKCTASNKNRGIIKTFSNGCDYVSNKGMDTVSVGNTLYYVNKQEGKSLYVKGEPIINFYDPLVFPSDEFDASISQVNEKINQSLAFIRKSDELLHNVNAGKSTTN

B1: Numax Fab (antibody, V domains shown)
VH: QVTLRESGPALVKPTQTLTLTCTFSGFSLSTAGMSVGWIRQPPGKALEWLADIWWDDKKHYNPSLKDRLTISKDTSKNQVVLKVTNMDPADTATYYCARDMIFNFYFDVWGQGTTVTVSS
VL: DIQMTQSPSTLSASVGDRVTITCSASSRVGYMHWYQQKPGKAPKLLIYDTSKLASGVPSRFSGSGSGTEFTLTISSLQPDDFATYYCFQGSGYPFTFGGGTKVEIK
B1 displayed an IC50 with hRSV F protein (FTM-NN) [1] of 0.086 nM. That is a picomolar value.

B2: Synagis Fab (antibody, V domains shown)
VH: B1 VH with A32S, H60D, D67S, D100S, F103T, F105W, Q112A
VL: B1 VL with S24K, A25C, S26Q, S27L, R28S, V103L
B2: the IC50 with hRSV F protein (FTM-NN) [1] worked out at 0.597 nM. Compared with the last molecule, the IC50 is about 6.9-fold higher.

B3: Synagis (antibody, V domains shown)
VH: B1 VH with A32S, H60D, D67S, D100S, F103T, F105W, Q112A
VL: B1 VL with S24K, A25C, S26Q, S27L, R28S, V103L
Molecule B3 displayed a Kd with hRSV F protein (FTM-NN) [2] of 0.64 nM. This counts as sub-nanomolar.
